Measurements taken from paper PMC9352680, “A comprehensive thermodynamic model for RNA binding by the Saccharomyces cerevisiae Pumilio protein PUF4”.
Numbering of substitutions follows the chain as printed. Names may count otherwise.

T1: PUF4 RNA-binding domain (Saccharomyces cerevisiae, UniProt P25339 537-888)
T1 sequence: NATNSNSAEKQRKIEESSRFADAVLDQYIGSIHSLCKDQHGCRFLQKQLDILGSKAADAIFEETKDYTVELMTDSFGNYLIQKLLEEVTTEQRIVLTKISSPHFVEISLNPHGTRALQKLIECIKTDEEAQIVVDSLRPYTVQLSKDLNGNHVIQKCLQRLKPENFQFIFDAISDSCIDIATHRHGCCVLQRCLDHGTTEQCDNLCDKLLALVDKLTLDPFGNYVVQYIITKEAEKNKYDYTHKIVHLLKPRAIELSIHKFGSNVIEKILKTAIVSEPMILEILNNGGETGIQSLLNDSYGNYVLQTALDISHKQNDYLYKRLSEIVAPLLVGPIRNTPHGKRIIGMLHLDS

B1: Ie_S4_P5E.1_K5.1_C5.1_H5.1_A5.1_F5.1_[+8CC]_T5.1 (ssRNA)
RNA: UUUGACAACUGAUCGUUCUUUCUUGUAUUAUCCUAUUCUUUCUCGAUCAGUUGUCUUU
B2: Ie_S4_P5E.1_K5.1_C5.1_H5.1_A5.1_F5.1_[+8CT]_T5.1 (ssRNA)
RNA: B1 RNA with C33U
B3: Ie_S4_P5E.1_K5.1_C5.1_H5.1_A5.1_F5.1_[+10TT]_T5.1 (ssRNA)
RNA: B1 RNA with C32U, C33A, A35U
B4: Ie_S4_P5E.1_K5.1_C5.1_H5.1_A5.1_[+6C]_F5.1_T5.1 (ssRNA)
RNA: UUUGACAACUGAUCGUUCUUUCUUGUAUUCAUUAUUCUUUCUCGAUCAGUUGUCUUU
B5: Ie_S4_P5E.1_K5.1_C5.1_H5.1_A5.1_F5.1_[+8C]_T5.1 (ssRNA)
RNA: B4 RNA with C30A, A31U, U32C
B6: Ie_S4_P5E.1_K5.1_C5.1_H5.1_[+4CCTC]_A5.1_F5.1_T5.1 (ssRNA)
RNA: UUUGACAACUGAUCGUUCUUUCUUGUACCUCUUAUUAUUCUUUCUCGAUCAGUUGUCUUU
B7: Ie_S4_P5E.1_K5.1_C5.1_H5.1_A5.1_F5.1_[+8TCTC]_T5.1 (ssRNA)
RNA: B6 RNA with C28U, C29U, U30A, C31U, U33C, A34U, U35C
B8: Ie_S4_P5E.1_K5.1_C5.1_H5.1_A5.1_[+5CCCT]_F5.1_T5.1 (ssRNA)
RNA: B6 RNA with C28U, U30C
B9: Ie_S4_P5E.1_K5.1_C5.1_H5.1_[+4TTCC]_A5.1_F5.1_T5.1 (ssRNA)
RNA: B6 RNA with C28U, C29U, U30C
B10: Ie_S4_P5E.1_K5.1_C5.1_H5.1_A5.1_F5.1_[+8TTCC]_T5.1 (ssRNA)
RNA: B6 RNA with C28U, C29U, U30A, C31U, A34C, U35C
B11: Ie_S4_P5E.1_K5.1_C5.1_H5.1_A5.1_F5.1_[+9TCTC]_T5.1 (ssRNA)
RNA: B6 RNA with C28U, C29U, U30A, C31U, A34C, U36C
B12: Ie_S4_P5E.1_K5.1_C5.1_H5.1_A5.1_[+7CTCT]_F5.1_T5.1 (ssRNA)
RNA: B6 RNA with C28U, C29U, U30A, U33C, A34U
B13: Ie_S4_P5E.1_K5.1_C5.1_H5.1_A5.1_F5.1_[+8CTCT]_T5.1 (ssRNA)
RNA: B6 RNA with C28U, C29U, U30A, C31U, U32C, A34C
B14: Ie_S4_P5E.1_K5.1_C5.1_H5.1_A5.1_[+6TTCC]_F5.1_T5.1 (ssRNA)
RNA: B6 RNA with C28U, C29U, C31U, U32C, U33C
B15: Ie_S4_P5E.1_K5.1_C5.1_H5.1_[+4CCCT]_A5.1_F5.1_T5.1 (ssRNA)
RNA: B6 RNA with U30C, C31U
B16: Ie_S4_P5E.1_K5.1_C5.1_H5.1_[+4CCC]_A5.1_F5.1_T5.1 (ssRNA)
RNA: UUUGACAACUGAUCGUUCUUUCUUGUACCCUUAUUAUUCUUUCUCGAUCAGUUGUCUUU
B17: Ie_S4_P5E.1_K5.1_C5.1_H5.1_A5.1_F5.1_[+8TTC]_T5.1 (ssRNA)
RNA: B16 RNA with C28U, C29U, C30A, A33U, U34C
B18: Ie_S4_P5E.1_K5.1_C5.1_H5.1_[+4TCC]_A5.1_F5.1_T5.1 (ssRNA)
RNA: B16 RNA with C28U
B19: Ie_S4_P5E.1_K5.1_C5.1_H5.1_A5.1_[+7CCT]_F5.1_T5.1 (ssRNA)
RNA: B16 RNA with C28U, C29U, C30A, U31C, U32C, A33U
B20: Ie_S4_P5E.1_K5.1_C5.1_H5.1_A5.1_[+5TTT]_F5.1_T5.1 (ssRNA)
RNA: B16 RNA with C28U, C29U, C30U
B21: Ie_S4_P5E.1_K5.1_C5.1_H5.1_A5.1_[+7TCT]_F5.1_T5.1 (ssRNA)
RNA: B16 RNA with C28U, C29U, C30A, U32C, A33U
B22: Ie_S4_P5E.1_K5.1_C5.1_H5.1_A5.1_[+7TTT]_F5.1_T5.1 (ssRNA)
RNA: B16 RNA with C28U, C29U, C30A, A33U
B23: Ie_S4_P5E.1_K5.1_C5.1_H5.1_[+4CTC]_A5.1_F5.1_T5.1 (ssRNA)
RNA: B16 RNA with C29U
B24: Ie_S4_P5E.1_K5.1_C5.1_H5.1_A5.1_F5.1_[+9CCT]_T5.1 (ssRNA)
RNA: B16 RNA with C28U, C29U, C30A, A33C, U34C
B25: Ie_S4_P5E.1_K5.1_C5.1_H5.1_A5.1_[+7CCC]_F5.1_T5.1 (ssRNA)
RNA: B16 RNA with C28U, C29U, C30A, U31C, U32C, A33C
B26: Ie_S4_P5E.1_K5.1_C5.1_H5.1_[+4CTT]_A5.1_F5.1_T5.1 (ssRNA)
RNA: B16 RNA with C29U, C30U
B27: Ie_S4_P5E.1_K5.1_C5.1_H5.1_A5.1_[+6CCC]_F5.1_T5.1 (ssRNA)
RNA: B16 RNA with C28U, C29U, U31C, U32C
B28: Ie_S4_P5E.1_K5.1_C5.1_H5.1_A5.1_F5.1_[+9CTC]_T5.1 (ssRNA)
RNA: B16 RNA with C28U, C29U, C30A, A33C, U35C
B29: Ie_S4_P5E.1_K5.1_C5.1_H5.1_A5.1_[+7CTT]_F5.1_T5.1 (ssRNA)
RNA: B16 RNA with C28U, C29U, C30A, U31C, A33U
B30: Ie_S4_P5E.1_K5.1_C5.1_H5.1_A5.1_[+6TTC]_F5.1_T5.1 (ssRNA)
RNA: B16 RNA with C28U, C29U, C30U, U32C
B31: Ie_S4_P5E.1_K5.1_C5.1_H5.1_A5.1_F5.1_[+10TCC]_T5.1 (ssRNA)
RNA: B16 RNA with C28U, C29U, C30A, U35C, A36C
B32: Ie_S4_P5E.1_K5.1_C5.1_H5.1_A5.1_F5.1_[+9CCC]_T5.1 (ssRNA)
RNA: B16 RNA with C28U, C29U, C30A, A33C, U34C, U35C
B33: Ie_S4_P5E.1_K5.1_C5.1_H5.1_[+4TTCCT]_A5.1_F5.1_T5.1 (ssRNA)
RNA: UUUGACAACUGAUCGUUCUUUCUUGUAUUCCUUUAUUAUUCUUUCUCGAUCAGUUGUCUUU
B34: Ie_S4_P5E.1_K5.1_C5.1_H5.1_A5.1_F5.1_[+10TCTCT]_T5.1 (ssRNA)
RNA: B33 RNA with C30A, C31U, U33A, A35C, U37C, A38U
B35: Ie_S4_P5E.1_K5.1_C5.1_H5.1_A5.1_[+5TCTCT]_F5.1_T5.1 (ssRNA)
RNA: B33 RNA with C31U, U32C
B36: Ie_S4_P5E.1_K5.1_C5.1_H5.1_[+4CCCTT]_A5.1_F5.1_T5.1 (ssRNA)
RNA: B33 RNA with U28C, U29C, C31U
B37: Ie_S4_P5E.1_K5.1_C5.1_H5.1_A5.1_[+5CCCTT]_F5.1_T5.1 (ssRNA)
RNA: B33 RNA with U29C
B38: Ie_S4_P5E.1_K5.1_C5.1_H5.1_A5.1_[+6CTCTC]_F5.1_T5.1 (ssRNA)
RNA: B33 RNA with C31U, U32C, U34C
B39: Ie_S4_P5E.1_K5.1_C5.1_H5.1_A5.1_[+7CTCTC]_F5.1_T5.1 (ssRNA)
RNA: B33 RNA with C30A, U33C, A35C
B40: Ie_S4_P5E.1_K5.1_C5.1_H5.1_A5.1_F5.1_[+9CTCTC]_T5.1 (ssRNA)
RNA: B33 RNA with C30A, C31U, U33C, A35C, U37C
B41: Ie_S4_P5E.1_K5.1_C5.1_H5.1_A5.1_F5.1_[+9CCTCT]_T5.1 (ssRNA)
RNA: B33 RNA with C30A, C31U, U33C, U34C, A35U, U36C
B42: Ie_S4_P5E.1_K5.1_C5.1_H5.1_A5.1_F5.1_[+8CTCTC]_T5.1 (ssRNA)
RNA: B33 RNA with C30A, C31U, U32C, U34C, A35U, U36C
B43: Ie_S4_P5E.1_K5.1_C5.1_H5.1_A5.1_[+5CTCTC]_F5.1_T5.1 (ssRNA)
RNA: B33 RNA with U29C, C30U, U33C
B44: Ib_S2_P3E.1_K3.1_C3.1_H3.1_[A4G]_A3.1_[A6T]_F3.1_T3.1 (ssRNA)
RNA: UUUGAUUAAUAUGAUAUCGUUCUUUCUUGUGUUUAUUCUUUCUCGAUAUCAUAUUAAUCUUU
B45: Ib_S2_P3E.1_K3.1_C3.1_H3.1_[A4T]_A3.1_[A6T]_F3.1_T3.1 (ssRNA)
RNA: B44 RNA with G31U
B46: Ib_S2_P3E.1_K3.1_C3.1_H3.1_[A4C]_A3.1_[A6G]_F3.1_T3.1 (ssRNA)
RNA: B44 RNA with G31C, U33G
B47: Ic_S2_P3E.1_K3.1_C3.1_H3.1_A3.1_[T5C]_[A6G]_F3.1_T3.1 (ssRNA)
RNA: B44 RNA with G31A, U32C, U33G
B48: Ic_S2_P3E.1_K3.1_C3.1_H3.1_A3.1_[T5G]_[A6T]_F3.1_T3.1 (ssRNA)
RNA: B44 RNA with G31A, U32G
B49: Ib_S2_P3E.1_K3.1_C3.1_H3.1_[A4T]_A3.1_[A6C]_F3.1_T3.1 (ssRNA)
RNA: B44 RNA with G31U, U33C
B50: Ib_S2_P3E.1_K3.1_C3.1_H3.1_[A4C]_A3.1_[A6T]_F3.1_T3.1 (ssRNA)
RNA: B44 RNA with G31C

Target: T1, PUF4 RNA-binding domain
Test: Mg; RNA-MaP; 20 mM Na-HEPES pH 7.4, 30 mM KOAc, 0.75 mM MgCl2, 0.1% Tween-20, 5% glycerol, 0.1 mg/mL BSA, 2 mM DTT; 25 C; 0.0125-409.6 nM protein
Conditions: tags: N-His6-TEV cleaved; C-SNAP kept, Cy3B-labelled; label: tethered on chip by stalled RNA polymerase

Binder | Kd [nM]
B1 | 21
B2 | 16.1
B3 | 2.52
B4 | 13.4
B5 | 17.1
UCUCUUCGUAUAUAUCUCUU (ssRNA) [Ia_S1_P3E.1_K3.1_C3.1_H3.1_[T1C]_A3.1_F3.1_T3.1] | 1180
B6 | 7.54
B7 | 20.1
B8 | 16
B9 | 9.55
B10 | 21.1
B11 | 18
B12 | 65.1
B13 | 27.8
B14 | 19.2
B15 | 6.05
B16 | 3.18
B17 | 12.3
B18 | 6.26
B19 | 66.5
B20 | 2.85
B21 | 24.9
B22 | 12.5
B23 | 2.91
B24 | 17.6
B25 | 85

Binder | Kd [nM]
B26 | 1.26
B27 | 60.8
B28 | 29.8
B29 | 26.8
B30 | 32
B31 | 5.62
B32 | 10.8
B33 | 16.5
B34 | 3.65
B35 | 14.2
B36 | 9.87
B37 | 20.8
B38 | 43.6
B39 | 28.7
B40 | 25
B41 | 17.8
B42 | 27.5
B43 | 13.3
B44 | 37
B45 | 576
B46 | 40.8
B47 | 33.1
B48 | 181
B49 | 472
B50 | 1200
